The supplement of paper PMC10065799, “High-throughput profiling of sequence recognition by tyrosine kinases and SH2 domains using bacterial peptide display” (eLife, 2023)

Experiments:
AncSZ = test: phosphorylation enrichment, bacterial display (enrichment ratio); higher = better substrate or ligand; peptides without Tyr show the background
EPHB1 = EPHB1 (UniProt P54762); test: as above
EPHB2 = EPHB2 (UniProt P29323); test: as above
FGFR1 = FGFR1 (UniProt P11362); test: as above
FGFR3 = FGFR3 (UniProt P22607); test: as above
Fer (mouse) = test: as above
Fes = Fes (UniProt P07332); test: as above
Fyn = Fyn (UniProt P06241); test: as above
Chain of Fyn (P06241 whole entry, looked up): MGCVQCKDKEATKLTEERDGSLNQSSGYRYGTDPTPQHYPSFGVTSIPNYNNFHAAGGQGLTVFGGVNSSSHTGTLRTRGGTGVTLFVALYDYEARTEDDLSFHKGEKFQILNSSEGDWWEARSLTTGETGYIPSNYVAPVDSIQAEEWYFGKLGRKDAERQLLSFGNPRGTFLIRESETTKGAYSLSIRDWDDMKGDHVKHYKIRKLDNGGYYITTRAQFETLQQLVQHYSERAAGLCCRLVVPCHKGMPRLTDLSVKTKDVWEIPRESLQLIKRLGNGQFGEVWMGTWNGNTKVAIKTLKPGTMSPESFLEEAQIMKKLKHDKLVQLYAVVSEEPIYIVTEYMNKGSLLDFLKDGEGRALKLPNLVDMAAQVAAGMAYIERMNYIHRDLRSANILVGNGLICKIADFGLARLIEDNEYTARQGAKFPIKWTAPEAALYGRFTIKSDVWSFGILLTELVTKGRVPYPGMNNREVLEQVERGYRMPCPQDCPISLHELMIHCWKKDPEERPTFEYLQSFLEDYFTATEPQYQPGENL

Hck = Hck (UniProt P08631); test: as above
Chain of Hck (P08631 whole entry, looked up): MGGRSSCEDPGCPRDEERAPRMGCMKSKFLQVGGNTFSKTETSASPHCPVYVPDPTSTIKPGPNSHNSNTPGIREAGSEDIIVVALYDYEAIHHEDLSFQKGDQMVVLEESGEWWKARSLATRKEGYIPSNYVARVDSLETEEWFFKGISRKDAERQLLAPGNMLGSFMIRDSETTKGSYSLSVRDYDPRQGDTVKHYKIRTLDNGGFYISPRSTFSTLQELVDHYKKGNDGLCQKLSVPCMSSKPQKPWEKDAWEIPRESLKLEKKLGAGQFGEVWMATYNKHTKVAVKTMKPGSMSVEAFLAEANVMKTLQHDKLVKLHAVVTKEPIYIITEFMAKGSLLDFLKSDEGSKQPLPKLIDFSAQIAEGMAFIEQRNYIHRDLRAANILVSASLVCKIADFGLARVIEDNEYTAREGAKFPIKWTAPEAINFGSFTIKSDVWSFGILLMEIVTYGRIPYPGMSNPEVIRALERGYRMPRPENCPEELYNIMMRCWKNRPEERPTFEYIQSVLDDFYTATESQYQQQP

Jak2 = Jak2 (UniProt O60674); test: as above
Chain of Jak2 (O60674 whole entry, looked up): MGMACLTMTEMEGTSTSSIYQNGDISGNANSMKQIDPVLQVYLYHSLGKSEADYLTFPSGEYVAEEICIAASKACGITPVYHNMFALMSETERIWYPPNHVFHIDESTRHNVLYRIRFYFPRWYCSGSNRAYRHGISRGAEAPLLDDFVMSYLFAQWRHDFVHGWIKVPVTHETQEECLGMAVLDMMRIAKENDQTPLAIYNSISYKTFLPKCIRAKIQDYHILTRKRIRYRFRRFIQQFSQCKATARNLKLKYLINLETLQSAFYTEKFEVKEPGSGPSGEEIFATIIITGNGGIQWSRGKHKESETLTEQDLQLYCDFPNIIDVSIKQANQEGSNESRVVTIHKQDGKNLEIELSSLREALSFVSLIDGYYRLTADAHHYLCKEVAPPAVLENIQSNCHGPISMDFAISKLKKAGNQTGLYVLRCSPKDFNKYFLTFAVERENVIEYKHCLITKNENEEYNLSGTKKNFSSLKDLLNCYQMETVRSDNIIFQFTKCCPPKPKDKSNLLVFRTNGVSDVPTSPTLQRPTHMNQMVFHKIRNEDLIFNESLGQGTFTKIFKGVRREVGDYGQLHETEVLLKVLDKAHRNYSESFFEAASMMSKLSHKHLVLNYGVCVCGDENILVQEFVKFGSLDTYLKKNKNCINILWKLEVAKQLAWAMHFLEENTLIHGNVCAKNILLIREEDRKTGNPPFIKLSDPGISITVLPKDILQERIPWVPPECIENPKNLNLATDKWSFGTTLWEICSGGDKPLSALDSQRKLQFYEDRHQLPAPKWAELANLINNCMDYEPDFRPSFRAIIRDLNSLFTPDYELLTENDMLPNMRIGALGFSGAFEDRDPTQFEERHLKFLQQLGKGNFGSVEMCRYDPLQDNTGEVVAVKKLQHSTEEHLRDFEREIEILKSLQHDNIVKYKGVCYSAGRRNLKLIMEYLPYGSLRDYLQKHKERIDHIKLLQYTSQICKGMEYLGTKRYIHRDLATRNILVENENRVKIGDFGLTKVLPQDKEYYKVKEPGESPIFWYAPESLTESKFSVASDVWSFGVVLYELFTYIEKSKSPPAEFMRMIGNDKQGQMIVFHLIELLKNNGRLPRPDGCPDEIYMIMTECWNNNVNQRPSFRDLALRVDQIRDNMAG

MERTK = MERTK (UniProt Q12866); test: as above
Chain of MERTK (Q12866 whole entry, looked up): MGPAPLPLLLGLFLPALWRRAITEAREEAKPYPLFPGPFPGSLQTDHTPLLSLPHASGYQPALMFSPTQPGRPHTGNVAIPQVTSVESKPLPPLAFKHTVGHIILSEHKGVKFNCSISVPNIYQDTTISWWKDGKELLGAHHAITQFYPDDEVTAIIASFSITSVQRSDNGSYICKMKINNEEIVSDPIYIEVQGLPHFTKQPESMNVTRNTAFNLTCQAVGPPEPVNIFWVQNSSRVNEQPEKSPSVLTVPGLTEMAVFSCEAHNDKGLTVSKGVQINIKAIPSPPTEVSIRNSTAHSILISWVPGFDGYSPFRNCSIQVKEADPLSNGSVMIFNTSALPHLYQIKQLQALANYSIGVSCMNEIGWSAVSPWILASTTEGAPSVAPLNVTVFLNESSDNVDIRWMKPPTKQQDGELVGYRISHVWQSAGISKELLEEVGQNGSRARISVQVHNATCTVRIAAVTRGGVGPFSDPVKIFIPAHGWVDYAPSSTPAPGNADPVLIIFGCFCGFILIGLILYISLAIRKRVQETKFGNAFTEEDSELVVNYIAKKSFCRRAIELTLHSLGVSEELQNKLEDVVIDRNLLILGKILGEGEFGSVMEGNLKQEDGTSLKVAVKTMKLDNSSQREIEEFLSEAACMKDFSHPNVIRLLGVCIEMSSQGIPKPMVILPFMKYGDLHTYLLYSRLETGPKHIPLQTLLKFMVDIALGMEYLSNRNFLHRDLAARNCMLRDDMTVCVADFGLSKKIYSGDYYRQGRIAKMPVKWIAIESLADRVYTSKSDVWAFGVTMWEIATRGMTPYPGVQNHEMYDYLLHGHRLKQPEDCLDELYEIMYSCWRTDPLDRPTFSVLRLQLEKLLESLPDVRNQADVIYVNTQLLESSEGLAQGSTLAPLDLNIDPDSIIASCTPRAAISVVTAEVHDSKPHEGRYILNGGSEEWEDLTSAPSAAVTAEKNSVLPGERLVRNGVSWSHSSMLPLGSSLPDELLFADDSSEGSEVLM

c-Abl (mouse) = test: as above
c-Src = test: as above
Grb2 SH2 = Grb2 SH2 (UniProt P62993); test: SH2 binding enrichment of the phosphorylated peptide, bacterial display (enrichment ratio); higher = better substrate or ligand; peptides without Tyr show the background
SHP2-C SH2 = test: as above
c-Src SH2 = test: as above
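Wherever SH2 binding enrichment of the phosphorylated peptide, bacterial display is given: peptide library displayed on the E. coli surface as eCPX fusions, selected cells deep-sequenced, score is each peptide's frequency after selection divided by its frequency in the input.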
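Wherever phosphorylation enrichment, bacterial display is given: 11-residue human phosphosite peptides and single-mutation variants displayed on the E. coli surface, counted by deep sequencing, each peptide's frequency after selection divided by its frequency in the unselected input library; frequency after pTyr selection over input frequency; kinase dosed for 20-30% of maximal phosphorylation in three min.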

Chain of FGFR1 (P11362 whole entry, looked up): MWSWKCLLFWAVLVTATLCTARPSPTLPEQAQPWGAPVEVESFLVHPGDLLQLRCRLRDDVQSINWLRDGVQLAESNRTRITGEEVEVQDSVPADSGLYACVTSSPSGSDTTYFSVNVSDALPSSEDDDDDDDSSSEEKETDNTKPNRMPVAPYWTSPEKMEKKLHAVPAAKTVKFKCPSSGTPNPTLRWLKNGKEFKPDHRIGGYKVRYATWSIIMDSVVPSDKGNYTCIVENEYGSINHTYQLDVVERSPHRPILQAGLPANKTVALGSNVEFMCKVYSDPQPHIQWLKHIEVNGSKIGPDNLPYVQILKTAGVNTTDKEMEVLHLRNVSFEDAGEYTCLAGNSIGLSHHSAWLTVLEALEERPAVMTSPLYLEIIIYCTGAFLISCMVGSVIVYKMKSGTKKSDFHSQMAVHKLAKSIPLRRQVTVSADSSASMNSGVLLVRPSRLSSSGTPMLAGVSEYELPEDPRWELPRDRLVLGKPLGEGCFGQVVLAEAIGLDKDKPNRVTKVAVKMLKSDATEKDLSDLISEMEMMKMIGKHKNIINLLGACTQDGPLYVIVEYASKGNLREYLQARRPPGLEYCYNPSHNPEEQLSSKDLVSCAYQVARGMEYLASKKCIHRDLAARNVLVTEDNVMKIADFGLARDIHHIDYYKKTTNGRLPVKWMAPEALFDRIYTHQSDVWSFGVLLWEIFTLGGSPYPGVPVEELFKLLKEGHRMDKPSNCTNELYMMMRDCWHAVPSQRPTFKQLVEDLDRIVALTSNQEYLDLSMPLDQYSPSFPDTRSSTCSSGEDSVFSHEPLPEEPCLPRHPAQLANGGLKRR
Chain of EPHB1 (P54762 whole entry, looked up): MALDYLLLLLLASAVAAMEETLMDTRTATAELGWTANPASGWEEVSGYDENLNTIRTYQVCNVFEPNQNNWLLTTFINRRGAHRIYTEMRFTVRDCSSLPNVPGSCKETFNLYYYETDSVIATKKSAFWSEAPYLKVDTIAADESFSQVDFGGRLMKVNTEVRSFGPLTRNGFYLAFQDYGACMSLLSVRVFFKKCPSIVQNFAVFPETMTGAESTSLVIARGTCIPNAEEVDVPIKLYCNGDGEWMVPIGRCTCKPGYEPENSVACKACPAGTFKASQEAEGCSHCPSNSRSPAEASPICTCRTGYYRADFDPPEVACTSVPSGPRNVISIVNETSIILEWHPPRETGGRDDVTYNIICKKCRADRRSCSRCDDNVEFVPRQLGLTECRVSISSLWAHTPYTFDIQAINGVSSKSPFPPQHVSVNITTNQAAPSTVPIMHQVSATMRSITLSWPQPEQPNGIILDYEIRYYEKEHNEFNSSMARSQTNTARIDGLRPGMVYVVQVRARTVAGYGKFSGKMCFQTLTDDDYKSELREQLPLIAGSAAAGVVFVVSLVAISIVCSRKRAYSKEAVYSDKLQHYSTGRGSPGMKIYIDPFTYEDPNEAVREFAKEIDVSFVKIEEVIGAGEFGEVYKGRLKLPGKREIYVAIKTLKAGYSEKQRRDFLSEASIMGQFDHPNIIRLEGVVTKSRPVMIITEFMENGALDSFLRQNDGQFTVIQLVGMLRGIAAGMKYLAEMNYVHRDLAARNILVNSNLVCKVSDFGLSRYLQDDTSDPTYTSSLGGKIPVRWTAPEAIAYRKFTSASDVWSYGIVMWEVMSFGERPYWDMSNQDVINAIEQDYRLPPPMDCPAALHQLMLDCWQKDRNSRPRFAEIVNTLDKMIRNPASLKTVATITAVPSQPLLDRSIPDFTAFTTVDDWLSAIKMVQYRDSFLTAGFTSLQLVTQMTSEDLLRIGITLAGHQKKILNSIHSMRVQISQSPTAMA

Sequence	SH2 binding enrichment (Grb2 SH2)	SH2 binding enrichment (SHP2-C SH2)	SH2 binding enrichment (c-Src SH2)	phosphorylation enrichment (AncSZ)	phosphorylation enrichment (EPHB1)	phosphorylation enrichment (EPHB2)	phosphorylation enrichment (FGFR1)	phosphorylation enrichment (FGFR3)	phosphorylation enrichment (Fer (mouse))	phosphorylation enrichment (Fes)	phosphorylation enrichment (Fyn)	phosphorylation enrichment (Hck)	phosphorylation enrichment (Jak2)	phosphorylation enrichment (MERTK)	phosphorylation enrichment (c-Abl (mouse))	phosphorylation enrichment (c-Src)
KFLENYLNCLL [PLD2_Y169_R172C_YF]	1.45	1.61	1.25	1.23	0.748	0.676	0.759	0.859	0.532	1.17	0.497	0.474	1.23	0.461	0.91	0.572
KHTLSYVDVGT [SDHA_Y629]	0.817	0.967	0.759	0.703	0.573	0.42	0.724	0.589	0.392	0.685	0.348	0.431	0.552	0.295	0.53	0.283
KIKGWYEKCEP [KRT26_Y119]	0.935	0.693	1.26	0.996	0.594	0.573	0.515	0.779	0.541	1.21	0.442	0.527	1.07	0.446	0.786	0.47
KKRSSYGNSSD [SELENOK_Y52_R50S]	0.686	0.609	0.441	0.57	0.4	0.462	0.386	0.476	0.422	0.508	0.438	0.475	0.523	0.556	0.489	0.515
KLIETYSSKNF [PLP1_Y50_F51S_YF]	0.713	0.472	0.422	0.654	0.769	0.618	0.446	0.46	0.388	0.996	0.504	0.519	0.59	0.401	0.588	0.451
KLSFSYGRALQ [ALDOB_Y302]	1.04	0.955	0.592	0.9	0.548	0.483	0.519	0.642	0.413	0.994	0.388	0.46	0.847	0.407	0.694	0.417
KMGNIYRTEFG [MRPL3_Y265_YF]	0.672	0.652	0.485	0.535	0.337	0.34	0.482	0.514	0.393	0.5	0.536	0.488	0.448	0.477	0.471	0.532

More lines, main results first:

SH2 binding enrichment (Grb2 SH2)	SH2 binding enrichment (SHP2-C SH2)	SH2 binding enrichment (c-Src SH2)	Sequence	phosphorylation enrichment (AncSZ)	phosphorylation enrichment (EPHB1)	phosphorylation enrichment (EPHB2)	phosphorylation enrichment (FGFR1)	phosphorylation enrichment (FGFR3)	phosphorylation enrichment (Fer (mouse))	phosphorylation enrichment (Fes)	phosphorylation enrichment (Fyn)	phosphorylation enrichment (Hck)	phosphorylation enrichment (Jak2)	phosphorylation enrichment (MERTK)	phosphorylation enrichment (c-Abl (mouse))	phosphorylation enrichment (c-Src)
0.886	0.709	0.604	KFLENYFDLKK [MMP3_Y41_YF]	1.06	1.94	0.751	2.51	1.75	0.467	1.27	0.448	0.543	1.26	0.446	0.816	0.499
1.01	0.644	1.04	KGEDFYCVTCP [FHL1_Y149_H154P]	1.47	0.586	0.589	1.15	1.04	2.65	1.01	4.22	2.96	1.33	6.08	0.646	3.64
0.923	0.986	0.558	KGLMPYGQPRP [SRRT_Y798_Q793K]	0.444	0.365	0.371	0.388	0.366	0.363	0.727	0.36	0.325	0.426	0.527	0.455	0.378
19.5	1	2.98	KGNMFYENSFA [EGFR_Y113_R108K_YF]	0.76	0.503	0.463	0.332	0.535	1.8	0.705	0.412	0.449	0.751	0.484	0.645	0.45
1.19	1.51	1.18	KIIRWYVSSEG [ANK2_Y3907_R3906W]	1.31	0.69	0.679	0.55	0.784	0.543	1.34	0.51	0.498	1.2	0.415	0.747	0.455
1	0.86	0.592	KKLHEYNTQFQ [PIK3R1_Y452]	0.55	0.323	0.385	0.322	0.366	0.389	0.541	0.39	0.367	0.43	0.348	0.477	0.42
1.24	1.91	1.11	KLKEKYQKDIA [HMGB1_Y155_E156Q]	0.57	0.454	0.588	0.565	1.21	0.522	0.996	0.465	0.487	1.47	0.557	1.24	0.582
0.531	0.761	0.654	KLKNAYEESLE [MYH7_Y1488]	0.982	0.491	0.445	0.65	0.612	0.454	1.14	0.429	0.384	0.908	0.452	0.743	0.472
0.962	0.937	1.03	KNKKDYYDMYE [SLC26A3_Y526]	1.13	1.13	0.738	6.27	4.04	0.543	0.851	0.601	0.73	0.67	0.408	0.579	0.579
